Residue numbers refer to the chain shown, from its start.
T1: human TREM2 expressed on cells (human, UniProt Q9NZC2 19-230)
T1 construct: BW5147.G.1.4 cells stably expressing human TREM2 together with Dap12, or endogenous TREM2 of primary human myeloid cells; also called huT2 BW; hTREM2 expressing cell line
T1 sequence: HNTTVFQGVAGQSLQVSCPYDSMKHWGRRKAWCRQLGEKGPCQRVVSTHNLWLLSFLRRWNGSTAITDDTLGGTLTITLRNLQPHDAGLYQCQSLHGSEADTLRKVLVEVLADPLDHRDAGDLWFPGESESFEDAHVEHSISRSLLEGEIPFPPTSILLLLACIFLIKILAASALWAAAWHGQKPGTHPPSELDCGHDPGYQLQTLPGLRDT

T2: human TREM2 Fc fusion (entire TREM2 ECD; only one Fc arm fused to TREM2) (human, UniProt Q9NZC2 19-174)
T2 construct: also called huTREM2-Fc; recombinant hTREM2
T2 sequence: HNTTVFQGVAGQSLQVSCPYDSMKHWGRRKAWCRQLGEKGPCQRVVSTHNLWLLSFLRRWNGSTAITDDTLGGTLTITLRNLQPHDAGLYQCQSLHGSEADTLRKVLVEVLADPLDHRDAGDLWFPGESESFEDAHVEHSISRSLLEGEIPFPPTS

T3: cynomolgus monkey TREM2 Fc fusion (entire TREM2 ECD; only one Fc arm fused to TREM2) (cynomolgus monkey, UniProt Q9NZC2 19-174 (human entry))
T3 construct: also called cyno TREM2-Fc
T3 chain: T2 sequence with A10E, W60R, L89F, F125V

B1: AL2p-h50 (antibody, human IgG1, V domains shown)
VH: QVQLVQSGAEVKKPGSSVKVSCKASGYAFSSSWMNWVRQAPGQGLEWMGRIYPGDGDTNYAQKFQGRVTITADESTSTAYMELSSLRSEDTAVYYCARLLRNQPGESYAMDYWGQGTLVTVSS
VL: DVVMTQTPLSLSVTPGQPASISCRSSQSLVHSNGYTYLHWYLQKPGQSPQLLIYKVSNRFSGVPDRFSGSGSGTDFTLKISRVEAEDVGVYYCSQSTRVPYTFGQGTKLEIK
notes: humanized, human IgG1; Fab and IgG formats under one id
B2: AL2p-h77 (antibody, human IgG1, V domains shown)
VH: B1 VH with S16A, G44R, M48I, E74T, T76A
VL: DVVMTQSPDSLAVSLGERATINCRSSQSLVHSNGYTYLHWYQQKPGQSPKLLIYKVSNRFSGVPDRFSGSGSGTDFTLTISSLQAEDVAVYYCSQSTRVPYTFGGGTKVEIK
notes: humanized, human IgG1; Fab and IgG formats under one id; also called A2p-h77
B3: AL2p-37 (antibody, IgG1, V domains shown)
VH: B1 VH with S16A, S32Q, G44R, M48I, D55G, Q62G, E74T, T76A
VL: B2 VL
notes: Fab and IgG formats under one id; also called AL2p-37 huIgG1
B4: AL2p-59 (antibody, V domains shown)
VH: B1 VH with S32H, D55E, D57Q, F64R
VL: B1 VL with D1G, S25T, G34Q, F60V
notes: Fab and IgG formats under one id
B5: AL2p-3 (antibody, V domains shown)
VH: B1 VH with D55E
VL: B1 VL
notes: AL2p-h50 variant; Fab and IgG formats under one id
B6: AL2p-6 (antibody, V domains shown)
VH: B1 VH
VL: B1 VL with G34W
notes: as for B5
B7: AL2p-62 (antibody, V domains shown)
VH: B1 VH with S16A, S32Q, G44R, M48I, D55E, Q62G, E74T, T76A
VL: B2 VL with G34Q
notes: as for B4
B8: AL2p-60 (antibody, IgG1, V domains shown)
VH: B1 VH with S32Q, D55E, Q62R
VL: B1 VL with D1G, G34Q, F60R
B9: AL2p-5 (antibody, V domains shown)
VH: B1 VH
VL: B1 VL with G34R
notes: AL2p-h50 variant; Fab and IgG formats under one id; also called AL2-5
B10: AL2p (parental mouse anti-TREM2 antibody) (antibody, V domains shown)
VH: QVQLQQSGPELVKPGASLKISCKASGYAFSSSWMNWVKQRPGKGLEWIGRIYPGDGDTNYNGEFRVRATLTADTSSTTAYMQLSSLTSEDSAVYFCARLLRNQPGESYAMDYWGQGASVTVSS
VL: B1 VL with S12P, T14S, P15L, Q17D, P18Q, Q50K, E86D, V88L, Y92F, Q105G
notes: Parental mouse antibody; Fab and IgG formats under one id; also called 9F5; 9F5a
B11: AL2p-2 (antibody, V domains shown)
VH: B1 VH with D55G
VL: B1 VL
notes: as for B5
B12: AL2p-4 (antibody, V domains shown)
VH: B1 VH with D55Q
VL: B1 VL

biological target: T1, human TREM2 expressed on cells; assay: FACS, human DCs
In short: (§1)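 Cells were BW5147.G.1.4 stably expressing human TREM2 with Dap12, or human monocyte-derived dendritic cells differentiated 6 days with GM-CSF and IL-4. Antibodies bound 1 h on ice in PBS+2% FBS, then PE anti-human secondary 30 min on ice; flow cytometry read-out as mean fluorescence intensity.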

Binder	MFI
B1	26 MFI
B2	162 MFI
B3	194 MFI

biological target: T4, human TREM2/DAP12 fusion protein (human, UniProt O43914 41-113, limits assumed); assay: cell-based or functional assay
T4 sequence (O43914 other isoform, or with tags, fused parts or gaps limits assumed): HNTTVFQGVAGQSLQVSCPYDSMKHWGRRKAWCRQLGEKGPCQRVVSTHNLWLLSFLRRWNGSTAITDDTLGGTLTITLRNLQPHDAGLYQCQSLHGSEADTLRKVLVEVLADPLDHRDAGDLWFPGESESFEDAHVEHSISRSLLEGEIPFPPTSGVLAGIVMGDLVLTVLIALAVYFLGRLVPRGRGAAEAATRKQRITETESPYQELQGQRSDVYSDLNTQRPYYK

Binder	Soluble luciferase activation at 10 µg/ml Fold over control
B1	6.36 fold over control
B2	7.14 fold over control

biological target: T4, human TREM2/DAP12 fusion protein; assay: cell-based or functional assay; remark: another data set of the same source

Binder	Plate bound IgG, fold over unstimulated control (25 nM IgG)	Soluble IgG, EC50	Soluble IgG, fold over control IgG (17 nM IgG)
B3	1.56 fold	9.41 nM	7.63 fold

biological target: T1, human TREM2 expressed on cells; assay: FACS, hTREM2 BW cells

Binder	Kd
B4	1.24 nM
B5	2.3 nM
B6	4.2 nM
B7	2.63 nM
B8	1.12 nM
B9	2 nM

biological target: T1, human TREM2 expressed on cells; assay: FACS, hTREM2 expressing cell line

Binder	Kd
B10	3.04 nM

biological target: T1, human TREM2 expressed on cells; assay: cell-based or functional assay

Binder	EC50 viability, dendritic cells D558	EC50 viability, dendritic cells D559	EC50 viability, dendritic cells D560	EC50 viability, macrophages D559	EC50 viability, macrophages D560	EC50 viability, macrophages D558
B8	0.152 nM	0.244 nM	0.178 nM	0.194 nM	0.154 nM	
B3	4.19 nM	6.16 nM	4.47 nM	18.3 nM	31.8 nM	1.24 nM

biological target: T4, human TREM2/DAP12 fusion protein; assay: cell-based or functional assay; remark: another data set of the same source

Binder	luciferase activation, soluble IgG, EC50
B10	19.3 nM

biological target: T2, human TREM2 Fc fusion (entire TREM2 …); assay: BLI, Fab, monovalent

Binder	Kd
B1	112 nM
B2	102 nM
B11	63.3 nM
B4	3.85 nM
B6	259 nM
B7	21.1 nM
B3	23.8 nM
B9	99.2 nM

Biological target: T3, cynomolgus monkey TREM2 Fc fusion …
Assay: BLI, Fab, monovalent

Binder	Kd
B1	7700 nM
B2	184 nM
B11	1400 nM
B4	3.95 nM
B5	4580 nM
B6	1150 nM
B7	19.4 nM
B3	16.1 nM
B9	4630 nM

biological target: T4, human TREM2/DAP12 fusion protein; assay: cell-based or functional assay; remark: another data set of the same source

Binder	Reporter assay soluble IgG (EC50, nM)
B10	19 nM

biological target: T4, human TREM2/DAP12 fusion protein; assay: cell-based or functional assay; remark: another data set of the same source

Binder	luciferase activation, soluble IgG, EC50
B1	63.1 nM
B2	20.1 nM
B11	23 nM
B4	11.2 nM
B5	50 nM
B6	38.6 nM
B7	25.1 nM
B12	66.2 nM
B9	38.1 nM

biological target: T4, human TREM2/DAP12 fusion protein; assay: cell-based or functional assay; remark: another data set of the same source

Binder	Luciferase activation plate bound 33 nM IgG, FOC	Luciferase activation soluble 10 nM IgG, FOC
B1	6.83 FOC	1.26 FOC
B2	6.77 FOC	1.47 FOC
B11	7.36 FOC	1.7 FOC
B5	6.03 FOC	1.29 FOC
B6	5.39 FOC	1.2 FOC
B3	9.42 FOC	2.16 FOC
B12	7.42 FOC	1.45 FOC
B9	9.99 FOC	1.27 FOC

biological target: T1, human TREM2 expressed on cells; assay: cell-based or functional assay; remark: another data set of the same source

Binder	Survival huDCs plate bound IgG, AUC
B1	337000 AUC
B2	381000 AUC
B11	461000 AUC
B5	363000 AUC
B6	547000 AUC
B3	680000 AUC
B9	710000 AUC

biological target: T2, human TREM2 Fc fusion (entire TREM2 …); assay: BLI, IgG, avid
In short: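 Avid format: AHQ-loaded IgGs exposed to 100 nM human or cyno TREM2-Fc antigen, 3 min association, 3 min dissociation in buffer. Monovalent format: human TREM2-Fc loaded on AHQ sensors, exposed to 100 nM Fab. Kinetics fit to 1:1 model, run at 25° C.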

Binder	Kd
B1	1.19 nM
B2	1.17 nM
B11	0.837 nM
B5	1.19 nM
B6	1.06 nM
B3	0.779 nM

biological target: T1, human TREM2 expressed on cells; assay: FACS, hTREM2 BW cells; remark: another data set of the same source
In short: as §1

Binder	Kd
B1	3.7 nM
B2	3.9 nM
B11	2.2 nM
B5	2.3 nM
B6	4.2 nM
B3	2.9 nM
B9	2 nM

biological target: T1, human TREM2 expressed on cells; assay: FACS, hTREM2 BW cells; remark: another data set of the same source
In short: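 BW5147.G.1.4 cells stably co-expressing human TREM2 and Dap12, 1×10⁵ cells/well, incubated with anti-TREM2 antibody 1 h on ice in PBS/2% FBS. Anti-human PE secondary 30 min on ice; flow cytometry, binding as mean fluorescence intensity.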

Binder	cell binding (FOB)
B1	78 FOB
B2	83 FOB

biological target: T2, human TREM2 Fc fusion (entire TREM2 …); assay: BLI, Fab, monovalent; remark: another data set of the same source
In short: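 TREM2 Fc fusion antigen was loaded onto AHQ biosensors, with a 60 s baseline in assay buffer. The sensors were then exposed to 100 nM antibody Fab for monovalent binding. Data were fitted to a 1:1 model, and the assay ran at 25 °C.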

Binder	Kd
B1	180 nM
B2	93.9 nM

biological target: T1, human TREM2 expressed on cells; assay: FACS, hTREM2 BW cells; remark: another data set of the same source

Binder	Bmax (MFI)	Kd
B3	216000 MFI	1.17 nM

From US20200317776A1 (published 2020)
